Assay results reported in publication PMC8136814.

Biological target: R3B2 1-273 (RIIID and first dsRBD) (Mucor lusitanicus)
Experiment: SEC-MALS

stoichiometry N: 2
Substance: R3B2 1-273 (RIIID and first dsRBD) (domain or fragment)
